# Source: paper PMC5824358
# T1: 65K C-RRM WT untagged (UniProt Q96LT9 381-516)
# T1 sequence: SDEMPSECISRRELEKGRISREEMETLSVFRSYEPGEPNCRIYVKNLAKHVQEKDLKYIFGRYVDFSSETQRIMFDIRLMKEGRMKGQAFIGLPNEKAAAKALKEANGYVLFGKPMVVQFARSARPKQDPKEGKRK
# Biological target: T1, 65K C-RRM WT untagged
# Experiment: NMR chemical shift perturbation
binder,measurement,value
CCCGCCUACUUUGCGGG (structured_RNA) [U12 oligo],binding result,binds
